In US20160083465A1 (AVEO PHARMACEUTICALS, published 2016):
Residue numbers refer to the chain shown, from its start.

T1: mouse IgG1 Fc-mature human GDF15 fusion protein (mFc-rhGDF15) (mouse; human)
T1 construct: Made in CHOK1SV cells, purified by Protein A and size exclusion; also called mouse Fc fused to human GDF15
T1 chain: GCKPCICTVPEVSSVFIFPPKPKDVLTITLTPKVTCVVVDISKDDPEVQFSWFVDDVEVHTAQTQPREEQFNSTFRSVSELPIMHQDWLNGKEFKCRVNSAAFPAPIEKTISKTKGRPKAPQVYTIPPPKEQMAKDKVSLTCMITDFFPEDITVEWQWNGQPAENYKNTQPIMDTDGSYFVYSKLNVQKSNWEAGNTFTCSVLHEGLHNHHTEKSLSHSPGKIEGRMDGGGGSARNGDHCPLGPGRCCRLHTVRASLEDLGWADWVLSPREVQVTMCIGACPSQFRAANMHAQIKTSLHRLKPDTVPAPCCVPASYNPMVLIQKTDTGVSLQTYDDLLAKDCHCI

T2: rabbit IgG1 Fc-mature mouse GDF15 fusion protein (rFc-rmGDF15) (rabbit; mouse)
T2 construct: also called rabbit Fc mature recombinant mouse GDF15
T2 chain: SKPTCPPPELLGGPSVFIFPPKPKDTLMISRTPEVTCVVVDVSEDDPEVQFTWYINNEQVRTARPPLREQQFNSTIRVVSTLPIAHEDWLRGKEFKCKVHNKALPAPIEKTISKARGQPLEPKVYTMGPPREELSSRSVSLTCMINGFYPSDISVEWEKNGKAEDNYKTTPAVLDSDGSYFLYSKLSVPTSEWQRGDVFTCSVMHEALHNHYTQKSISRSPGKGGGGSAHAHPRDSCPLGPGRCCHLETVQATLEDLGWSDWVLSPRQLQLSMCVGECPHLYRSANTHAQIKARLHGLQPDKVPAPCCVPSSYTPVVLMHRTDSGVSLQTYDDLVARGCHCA

T3: mouse Fc mature recombinant cynomolgus monkey GDF15 (mFc-rcGDF15) (mouse; cynomolgus monkey, UniProt G7PWZ3 193-308)
T3 construct: mature; not shown: mouse Fc and any linker
T3 sequence (looked up): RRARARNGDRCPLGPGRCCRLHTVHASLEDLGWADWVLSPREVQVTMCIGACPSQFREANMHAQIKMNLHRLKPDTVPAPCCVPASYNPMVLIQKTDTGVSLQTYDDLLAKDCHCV

T4: cleaved-rhGDF15 (human, UniProt Q99988 197-308)
T4 sequence: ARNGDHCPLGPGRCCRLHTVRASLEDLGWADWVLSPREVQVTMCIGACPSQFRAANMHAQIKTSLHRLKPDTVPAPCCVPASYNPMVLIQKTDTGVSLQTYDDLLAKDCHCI

B1: 04F08 (antibody, mouse IgG1, kappa)
heavy: QVTLKESGPGILQPSQTLSLTCSFSGFSLSTYGMGVTWIRQPSGKGLEWLAHIYWDDDKRYNPSLKSRLTISKDTSNNQVFLKITSVDTADTATYYCAQTGYSNLFAYWGQGTLVTVSAAKTTPPSVYPLAPGSAAQTNSMVTLGCLVKGYFPEPVTVTWNSGSLSSGVHTFPAVLQSDLYTLSSSVTVPSSTWPSETVTCNVAHPASSTKVDKKIVPRDCGCKPCICTVPEVSSVFIFPPKPKDVLTITLTPKVTCVVVDISKDDPEVQFSWFVDDVEVHTAQTQPREEQFNSTFRSVSELPIMHQDWLNGKEFKCRVNSAAFPAPIEKTISKTKGRPKAPQVYTIPPPKEQMAKDKVSLTCMITDFFPEDITVEWQWNGQPAENYKNTQPIMDTDGSYFVYSKLNVQKSNWEAGNTFTCSVLHEGLHNHHTEKSLSHSPGK
light: DIVMTQSQKFMSTSVGDRVSVTCKASQNVGTNVAWYQQKLGQSPKTLIYSASYRYSGVPDRFTGSGSGTDFTLTISNVQSEDLAEYFCQQYNSYPYTFGGGTKLEIKRADAAPTVSIFPPSSEQLTSGGASVVCFLNNFYPKDINVKWKIDGSERQNGVLNSWTDQDSKDSTYSMSSTLTLTKDEYERHNSYTCEATHKTSTSPIVKSFNRNEC
notes: Murine monoclonal from hybridoma, IgG1 kappa; also called antibody 04F08
B2: 17B11 (antibody, mouse IgG1, kappa)
heavy: QVTLKESGPGILQPSQTLSLTCSFSGFSLSTSGMGVSWIRQPSGKGLEWLAHNDWDDDKRYKSSLKSRLTISKDTSRNQVFLKITSVDTADTATYYCARRVGGLEGYFDYWGQGTTLTVSSAKTTPPSVYPLAPGSAAQTNSMVTLGCLVKGYFPEPVTVTWNSGSLSSGVHTFPAVLQSDLYTLSSSVTVPSSTWPSETVTCNVAHPASSTKVDKKIVPRDCGCKPCICTVPEVSSVFIFPPKPKDVLTITLTPKVTCVVVDISKDDPEVQFSWFVDDVEVHTAQTQPREEQFNSTFRSVSELPIMHQDWLNGKEFKCRVNSAAFPAPIEKTISKTKGRPKAPQVYTIPPPKEQMAKDKVSLTCMITDFFPEDITVEWQWNGQPAENYKNTQPIMDTDGSYFVYSKLNVQKSNWEAGNTFTCSVLHEGLHNHHTEKSLSHSPGK
light: DIVLTQSPASLAVSLGQRATISCRASQSVSTSRFSYMHWFQQKPGQAPKLLIKYASNLESGVPARFSGSGSGTDFTLNIHPVEGEDTATYYCQHSWEIPYTFGGGTKLEIKRADAAPTVSIFPPSSEQLTSGGASVVCFLNNFYPKDINVKWKIDGSERQNGVLNSWTDQDSKDSTYSMSSTLTLTKDEYERHNSYTCEATHKTSTSPIVKSFNRNEC
notes: Murine monoclonal from hybridoma, IgG1 kappa; also called antibody 17B11
B3: 08G01 (antibody, mouse IgG2b, kappa)
heavy: EVLLQQSGPEVVKPGASVKIPCKASGYTFTDYNMDWVKQSHGKSLEWIGEINPNNGGTFYNQKFKGKATLTVDKSSSTAYMELRSLTSEDTAVYYCAREAITTVGAMDYWGQGTSVTVSSAKTTPPSVYPLAPGCGDTTGSSVTLGCLVKGYFPESVTVTWNSGSLSSSVHTFPALLQSGLYTMSSSVTVPSSTWPSQTVTCSVAHPASSTTVDKKLEPSGPISTINPCPPCKECHKCPAPNLEGGPSVFIFPPNIKDVLMISLTPKVTCVVVDVSEDDPDVQISWFVNNVEVHTAQTQTHREDYNSTIRVVSTLPIQHQDWMSGKEFKCKVNNKDLPSPIERTISKIKGLVRAPQVYILPPPAEQLSRKDVSLTCLVVGFNPGDISVEWTSNGHTEENYKDTAPVLDSDGSYFIYSKLNMKTSKWEKTDSFSCNVRHEGLKNYYLKKTISRSPGK
light: DIQMTQSPASLSASVGETVTITCRASGNIHNYLAWYQQKQGKSPQLLVYNAKTLADGVPSRFSGSGSGTQYSLKINSLQPEDFGSYYCQHFWSSPYTFGGGTKLEIKRADAAPTVSIFPPSSEQLTSGGASVVCFLNNFYPKDINVKWKIDGSERQNGVLNSWTDQDSKDSTYSMSSTLTLTKDEYERHNSYTCEATHKTSTSPIVKSFNRNEC
notes: Murine monoclonal from hybridoma, IgG2b kappa; also called antibody 08G01
B4: Hu01G06-138 (antibody, human IgG1, kappa)
heavy: not shown
light: DIQMTQSPSSLSASVGDRVTITCRTSENLHNYLAWYQQKPGKAPKLLIYDAKTLADGVPSRFSGSGSGTDYTLTISSLQPEDFATYYCQHFWSSPYTFGQGTKLEIKRTVAAPSVFIFPPSDEQLKSGTASVVCLLNNFYPREAKVQWKVDNALQSGNSQESVTEQDSKDSTYSLSSTLTLSKADYEKHKVYACEVTHQGLSSPVTKSFNRGEC
B5: Hu01G06-135 (antibody, human IgG1, kappa)
heavy: not shown
light: B4 light
B6: Hu01G06-146 (antibody, human IgG1, kappa)
heavy: not shown
light: B4 light with A43S, S94D
B7: Hu01G06-122 (antibody, human IgG1, kappa)
heavy: not shown
light: B4 light
B8: Hu01G06-127 (antibody, human IgG1, kappa)
heavy: not shown
light: B4 light with A43S, S94D

Molecular target: T1, mouse IgG1 Fc-mature human GDF15 fusion …
Assay: SPR Biacore T100, 37 C, antibody captured by anti-mouse IgG, antigen in solution
Description: Rabbit anti-mouse IgGs (GE Healthcare) were immobilized on carboxymethylated dextran CM4 sensor chips (GE Healthcare) by amine coupling, according to a standard protocol. Analyses were performed at 37° C. using PBS containing 0.05% surfactant P20 as running buffer. The antibodies were captured in individual flow cells at a flow rate of 10 μL/minute. Injection time was varied for each antibody to yield an Rmax between 30 and 60 RU. 250 μg/mL mouse Fc (Jackson ImmunoResearch, West Grove, Pa.) was injected at 30 μL/minute for 120 seconds to block non-specific binding of capture antibodies to mouse Fc portion of the recombinant GDF15 protein when needed. […] The dissociation phase was monitored for up to 1500 seconds. The surface was then regenerated with two 60-second injections of 10 mM Glycine-HCl, pH 1.7, at a flow rate of 30 μL/minute.
Kinetic parameters were determined using the kinetic function of the BIAevaluation software (GE Healthcare) with double reference subtraction.

Kd [nM]	koff [s⁻¹]	kon [M⁻¹ s⁻¹]	Binder
0.19	0.00064	3.6e+06	B1
0.14	0.00051	3.7e+06	B2
0.19	0.0011	6e+06	B3

Molecular target: T2, rabbit IgG1 Fc-mature mouse GDF15 …
Assay: SPR Biacore T100, 37 C, purified antibody captured by anti-human IgG Fc, antigen in solution
Description: (§1) Goat anti-human IgGs (Fc fragment specific, Jackson ImmunoResearch, West Grove, Pa.) were immobilized on carboxymethylated dextran CM4 sensor chips by amine coupling, according to a standard protocol. Analyses were performed at 37° C. using PBS containing 0.05% surfactant P20 as running buffer. The antibodies were captured in individual flow cells at a flow rate of 10 μL/minute. Injection time was varied for each antibody to yield an Rmax between 30 and 60 RU. […] The dissociation phase was monitored for up to 1500 seconds. The surface was then regenerated with two 60-second injections of 10 mM Glycine-HCl, pH 2.25, at a flow rate of 30 μL/minute.
(§2) Kinetic parameters were determined using the kinetic function of the BIAevaluation software (GE Healthcare) with double reference subtraction. Kinetic parameters for each antibody, kₐ (association rate constant), kd (dissociation rate constant), and KD (equilibrium dissociation constant) were determined Kinetic values of purified monoclonal antibodies on mFc-rhGDF15, mature human GDF15, rFc-rmGDF15, and mFc-rcGDF15 are summarized in Table 27.

Kd [nM]	koff [s⁻¹]	kon [M⁻¹ s⁻¹]	Binder
0.044	0.0008	1.9e+07	B4
0.055	0.0019	3.7e+07	B5
0.063	0.00072	1.1e+07	B6
0.063	0.0014	2.2e+07	B7
0.051	0.0021	3.9e+07	B8

molecular target: T3, mouse Fc mature recombinant cynomolgus …; assay: as above
Description: as §1, §2

Kd [nM]	koff [s⁻¹]	kon [M⁻¹ s⁻¹]	Binder
0.025	5.3e-05	2.3e+06	B4
0.038	7.9e-05	2.2e+06	B5
0.008	1.5e-05	2e+06	B6
0.01	2.4e-05	2.3e+06	B7
0.0095	1.6e-05	1.8e+06	B8

Molecular target: T1, mouse IgG1 Fc-mature human GDF15 fusion …
Assay: as above
Description: as §1, §2

Kd [nM]	koff [s⁻¹]	kon [M⁻¹ s⁻¹]	Binder
0.011	4.1e-05	5.9e+06	B4
0.014	4.4e-05	5.3e+06	B5
0.0093	2.6e-05	5.3e+06	B6
0.0065	2.1e-05	5.9e+06	B7
0.018	4.2e-05	4.6e+06	B8

molecular target: T4, cleaved-rhGDF15; assay: as above
Description: as §1, §2

Kd [nM]	koff [s⁻¹]	kon [M⁻¹ s⁻¹]	Binder
0.0045	2.5e-05	7.9e+06	B4
0.01	6.2e-05	7.3e+06	B5
0.011	5.2e-05	6.5e+06	B6
0.0079	3.4e-05	7.9e+06	B7
0.01	3.6e-05	6.1e+06	B8
